According to the supplement of paper PMC12764529:
± gives the half width of the 95% confidence interval.

Experiments:
[1] = folding stability dG unfold from trypsin proteolysis; higher = more stable
In short: (§1)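 Bayesian fitting of sequencing counts gave K50 for each design. Unfolding free energy followed by setting this against a sequence-predicted unfolded-state K50 and a shared folded-state K50, either per protease or with trypsin and chymotrypsin combined. The designs, under 80 residues and lacking cysteine, were digested in a PA-tagged cDNA display format at 11 threefold-diluted protease concentrations and without protease, and only those with AlphaFold2 dimer inter-PAE above 15 were kept.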

[2] = folding stability dG unfold from chymotrypsin proteolysis; higher = more stable
In short: as §1

[3] = folding stability dG unfold (combined trypsin and chymotrypsin); higher = more stable
In short: as §1

Sequence	folding stability dG unfold [1] [kcal/mol]	folding stability dG unfold [2] [kcal/mol]	folding stability dG unfold [3] [kcal/mol]
SAGGSDGEMITYPFLLPDGYLITIWISPENGQITEIEIMPIPAPPPEPPVEPKYGRDDGNGNKKYDSAGGSA [r2_78_TrROS]	1.14 ± 0.047	1.72 ± 0.088	1.52 ± 0.16
SAGGSDLKVQVNKDGNTIRIQLPDGKPIFEIPFYRYDPDDGKPLEPWTIRMRLDPDGNIKIEEITPSAGGSA [r2_362_TrROS]	1.77 ± 0.044	1.45 ± 0.14	1.68 ± 0.15
SAGGSDRVLVPAGPSDYDVLVVVTPGPGDLVGVDALVIHPDGTPLAVRGVLDPTTGGISPVAVDPLSAGGSA [r2_402_TrMRF]	0.28 ± 0.024	0.243 ± 0.051	0.258 ± 0.038
SAGGSDTVVLDFTVTVDGKPYTVRVTLTRNPPTGEITVPVEIESANPEDAVPAREVADALVERLLSSAGGSA [r2_259_TrMRF]	1.21 ± 0.028	1.78 ± 0.075	1.56 ± 0.076
SAGGSEEFELEFRVEAASPEEAEALAEEIRKRLEDLGLDVEVEAETLEPGAVVVRPRVRVDPETGRLDSAGG [r13_697_TrMRF]	0.126 ± 0.24	1.29 ± 0.065	0.956 ± 0.16
SAGGSEEIKKLLASGQLDEVIALLKKKGYENVTVTPDPRKPVVTINVTKTDPKTGKKKTTTITIPTGLSAGG [r13_359_JUSTAS]	3.62 ± 0.1	4.03 ± 0.052	3.92 ± 0.086
SAGGSEIKIEIKYDEETGELVVEITVPESEEEVKKLVEELKKLGVEKVEIVRDKKTKEYRIRVVFKSAGGSA [r2_358_TrROS_Hall]	3.28 ± 0.14	4.98 ± 0.3	4.82 ± 0.57
SAGGSEPEPLRVSEITDIKESVLPNGTLKATVTLKLPEKDEEVEIEVEASSEEEIEEAIEEIVKLESAGGSA [r2_248_JUSTAS]	0.678 ± 0.089	0.0425 ± 0.35	0.482 ± 0.21
SAGGSEVETVKVKIKVKIDGKVYEVEAEVEVFTDEDGRKVLRITLPDGRVVEIPLEDADKIEEIEVSAGGSA [r2_297_TrROS_Hall]	4.7 ± 0.19	4 ± 0.11	4.25 ± 0.087
SAGGSFEPKREIEITLPNGREIEVWRYPGEGQMWVKLRFPNNGQKVEIPVKSPEDAEDSLKKFLKNSAGGSA [r2_70_TrROS]	-0.28 ± 0.29	-0.334 ± 0.35	-0.169 ± 0.25
SAGGSFPIADVKEVKVEAYPETNTAKVPFTFPNGVTAVADAYLDPVTGRPVLVVRTPDGRLVVLPLSAGGSA [r2_490_TrMRF]	1.43 ± 0.032	1.15 ± 0.12	1.3 ± 0.094
SAGGSFSVDVPPDATVEVEEKVKRPDGSEVHLKITITRLPTSGKVLVTVEDNPPEKGSTTKEEIVPLESAGG [r13_934_JUSTAS]	-0.431 ± 0.38	0.975 ± 0.068	0.658 ± 0.28
SAGGSFVKIKVKFDNKPIEIPIPDFVQKVEGDYQTIVFPEGDADSVLKKLKEASKKIEIVKVEVVKPSAGGS [r8_490_TrMRF]	-0.735 ± 0.24	0.618 ± 0.13	0.354 ± 0.12
SAGGSGGLRVELPFLLPDGYRVTLTVNPETGEITEIRVEPIDAVPPEPEVLPVVGFDPRYGVPLVLSAGGSA [r2_78_TrMRF]	1.12 ± 0.026	0.344 ± 0.14	0.812 ± 0.12
SAGGSGIDFDIEFHNNHITIDIYMYDPNGQPIFEMTMTIPIPPVPPPPVPEVKVDDPEEAKEAKNQSAGGSA [r2_332_TrROS]	0.751 ± 0.14	2.35 ± 0.17	1.89 ± 0.21
SAGGSGKEFEVEKAVFIPLPDDRKLIIVKTKTSIQIVEYNGEEWKLVATYPYKDVPKNPRELLKKKSAGGSA [r2_133_TrMRF]	0.454 ± 0.22	1.13 ± 0.14	0.929 ± 0.22
SAGGSGMKLEKEIEVEVDPSGVGAEAVKEAVRAELEKEGYKVKVEIEVSEEEEKLYVKLHVEIYELSAGGSA [r2_172_JUSTAS]	0.999 ± 0.064	2.01 ± 0.14	1.57 ± 0.19
SAGGSGMSFSITEEVVIPTPGPRTLLLLKTEGDIIIVERDGERLRPVKTVPRKEVPEEPEKLIEELSAGGSA [r2_133_JUSTAS]	-1.07 ± 0.34	-0.243 ± 0.15	-0.434 ± 0.12

Sequence	folding stability dG unfold [1] [kcal/mol]	folding stability dG unfold [2] [kcal/mol]	folding stability dG unfold [3] [kcal/mol]
SAGGSGMTETIKLSDPKNGLSVTVTVTFDPATGSKSVTITVESSEEAKEKVKALLEEKGLPVTVTSSAGGSA [r2_30_JUSTAS]	0.716 ± 0.063	1.55 ± 0.082	1.27 ± 0.081
SAGGSGMVITIPVELPTPRTLTFTFYPETGTATVEVSPGVPAAEVRATVEEVFAAHGLKLNPITLLSAGGSA [r2_497_JUSTAS]	0.995 ± 0.02	1.61 ± 0.075	1.39 ± 0.066
SAGGSGPPVLVRLEVEVLGEPYTLTLPVPASLIHPSQRVRFRVRVVSVDPVNNRVTVRIESVELYPSAGGSA [r2_479_TrMRF]	2.75 ± 0.065	3.018 ± 0.021	2.98 ± 0.036
SAGGSGQKFEIDRMIHIPLPNGRMLYIMRMKNPIMIMEFNGDNFRPVATVPNDDIPPEIRDLIKKLSAGGSA [r2_133_TrROS]	1.95 ± 0.068	2.25 ± 0.11	2.27 ± 0.12
SAGGSGSSMSVSVSVTTSPVSVDPNKPVPIEVATTTTPVSSYDPVTGTSSTTTTTTTVPLGNPEAASAGGSA [r2_489_JUSTAS]	2.62 ± 0.081	1.42 ± 0.044	1.98 ± 0.051
SAGGSIEELAREKALEEHKKTGEKNYPFTFEFEIVSSYEFAPDGTPVASSEFPFKITLKFKLPPKKKSAGGS [r16_156_JUSTAS]	1.44 ± 0.024	2.88 ± 0.069	2.43 ± 0.12
SAGGSIETIAERARDLARELNPDDGKEYPITIEIRDPENNRPIRIKISVRYDPDGKIKKVKFTKFEPYSAGG [r13_770_TrROS]	1.03 ± 0.06	1.04 ± 0.11	1.06 ± 0.077
SAGGSIKVFESESTDPATGKVTTTTTTVTESSEEPTPEAAKNTPPGETTTTTTTTTTTSPVPPGTAASAGGS [r8_274_JUSTAS]	0.476 ± 0.057	0.67 ± 0.022	0.54 ± 0.14
SAGGSIRIYANNVEITDIEIGDDGYIEIKVRMRGPNGQPQEFTLMIRVVPPPPPPKVDPNDPDAKDSAGGSA [r2_368_TrROS]	2.51 ± 0.1	3.5 ± 0.29	3.08 ± 0.31
SAGGSITSTTTLPDGTTVTTTVLPSGVTVVTTSTLDPATGTVSTTTTTLPPSSATTTTTTTTVPPLTSAGGS [r16_230_JUSTAS]	3.18 ± 0.12	2.16 ± 0.029	2.58 ± 0.046
SAGGSIWIPIDSPEDVEEAIDFIQDFLAERGMPPGHDIKKIKVERMENGHYWVEIEFPGRKIYIWVSAGGSA [r2_120_TrROS]	2.62 ± 0.049	4.02 ± 0.054	3.65 ± 0.084
SAGGSKIHIPIDPESGNFRIKVYPPDEPKEVSIQFKDPDDPEEFMDRAIEEANEYANNGYRVEIEPSAGGSA [r2_118_TrROS]	-0.52 ± 0.3	-0.278 ± 0.58	-0.668 ± 0.48
SAGGSKIKIVEVKKNEDGTVTVKVEVEINGKKYTIEARFETLEDGKKVMTLRITNENGEEIEIVLPSAGGSA [r2_376_TrROS_Hall]	3.45 ± 0.38	5.22 ± 0.17	5.12 ± 0.32
SAGGSKIPLDNIKVITIMYNPKEGMYWISIRFPNNGKEVVFPYEDAPKILEKFPEIKEIEVYPFPPSAGGSA [r2_159_TrROS]	2.25 ± 0.11	2.76 ± 0.036	2.59 ± 0.084
SAGGSKKTLTITVKNKETGETVKIKVELTPDGKKIKITIVAKKEEEAKEAAKKLLEELGYKVEIVPSAGGSA [r2_30_TrROS_Hall]	3.15 ± 0.36	1.61 ± 0.066	2.09 ± 0.2
SAGGSKKVILIAKIPNEDKYLVLIASDSPELVKEAAKKAKKPGFYVLGEMTVEEAVKKLGLPPELFKSAGGS [r16_438_TrMRF]	1.04 ± 0.03	2.5 ± 0.051	2.23 ± 0.19
SAGGSKLPPGQKVIEIEWKIPPGLKPGQPFKISDEFINKLAERHGNIHITNIQFTNSYMKWSIIIDSAGGSA [r2_383_TrROS]	1.83 ± 0.063	2.2 ± 0.051	2.11 ± 0.067
SAGGSKMEIVKYDKEKNVIYVRVDGKTYTFPLDEITEVTFDEETGELTIKVNGKTYTIKLDLPDLVSAGGSA [r2_48_TrROS_Hall]	3.22 ± 0.16	4.29 ± 0.12	4.11 ± 0.29
